{
  "source": "paper PMC8274607",
  "about": "“A Derivative of the D5 Monoclonal Antibody That Targets the gp41 N-Heptad Repeat of HIV-1 with Broad Tier-2-Neutralizing Activity” (Journal of Virology, 2021)",
  "biological_target": "T1, covalent biotinylated CCIZN17 (synthetic IZ coiled coil fused to HIV-1 …)",
  "T1 construct": "also called NHR mimetic; mimetic of the NHR trimer",
  "assay": "BLI; biotinylated CCIZN17 (200 nM) loaded on streptavidin biosensors to 0.4 nm, Octet RED96; Fab in solution at known concentrations, 4 min association, 4 min dissociation; PBS pH 7.4 with 0.1% BSA and 0.05% Tween 20",
  "settings": "both partners purified",
  "data": [
    {"binder": "D5_AR Fab (Fab, V domains shown, also called D5_H011_L0; source: Expi293F, transfected, purified (protein G agarose, SEC)) VH: QVQLVQSGAEVRKPGASVKVSCKASGDTFSSYAISWVRQAPGQGLEWMGSIIPLFGTAAYAQKFQGRVTITADESTSTAYMELSSLRSEDTAIYYCARDNPTFGAADSWGKGTLVTVSS VL: DIQMTQSPSTLSASIGDRVTITCRASEGIYHWLAWYQQKPGKAPKLLIYKASSLASGAPSRFSGSGSGTDFTLTISSLQPDDFATYYCQQYSNYPLTFGGGTKLEIK", "values": [
      {"measurement": "Kd", "value": 1.6, "unit": "nM"}
    ]}
  ]
}
